Here are results for one molecule from publication PMC11347734, “Ultrasensitive Quantification of MUC16 Antigen/Amine-Terminated Aptamer Interaction by Surface Plasmon Resonance: Kinetic and Thermodynamic Studies”.

Holding throughout (settings): protein: commercial
For series [1], the target named is T1, MUC16 antigen (CA125) (UniProt Q8WXI7 1-14451). The series is described as follows: SPR; 310 K (37 C), pH 7.2; SPR, pH 7.2, 25 C (also 37 and 42 C); 1X PBS with 1 mM MgCl2 given as flow buffer for aptamer immobilization; surface blocked with 0.1% BSA. For orientation: SPR reads the build-up and loss of mass on a sensor chip optically.
Series [2] addresses T1, MUC16 antigen (CA125). The series can be described thus: SPR; 25 C, pH 7.2; kon 2.55e4 M-1 s-1, koff 1.01e-3 s-1; SPR, pH 7.2, 25 C (also 37 and 42 C); 1X PBS with 1 mM MgCl2 given as flow buffer for aptamer immobilization; surface blocked with 0.1% BSA.
The target of series [3] is T1, MUC16 antigen (CA125). The series can be described thus: SPR; 315 K (42 C), pH 7.2; SPR, pH 7.2, 25 C (also 37 and 42 C); 1X PBS with 1 mM MgCl2 given as flow buffer for aptamer immobilization; surface blocked with 0.1% BSA.

The term Kd denotes the concentration at which binding is half-saturated. Read a high Kd as weaker binding. For CTCACTATAGGGAGACAAGAATAAACGCTCAA (ssDNA, 3'-C6 amine) [anti-MUC16 aptamer], the dissociation constant Kd amounted to 0.101 µM in series [1], 0.039 µM in series [2] and 1.34 µM in series [3].
